Source: PMC4489720

Key:
[1] = target: His-tagged recombinant full-length HB3VAR06 (FV6) (P. falciparum HB3); experiment: SEC; Superdex 200 10/30 HR, 50 mM Tris-HCl, 150 mM NaCl, pH 7.4; α2M (150 μg) alone and with molar ratios of FV6, incubated on ice 15 min; 0.5 mL/min, A280
[2] = target: His-tagged recombinant full-length HB3VAR06 (FV6) (P. falciparum HB3); experiment: ELISA; MaxiSorp plates coated with recombinant PfEMP1 constructs (18 nM, overnight, 4°C); blocked in TSM buffer with 1% Ig-free BSA; α2M or α2M-MA (10 nM; titrated in Fig 2A); detected with anti-α2M antibodies

Binder | stoichiometry N [1] | amount bound relative to α2M-MA (fold) [2] | stoichiometry N (FV6 per α2M-MA) [1]
α2-macroglobulin (α2M), native (natural protein) SVSGKPQYMVLVPSLLHTETTEKGCVLLSYLNETVTVSASLESVRGNRSLFTDLEAENDVLHCVAFAVPKSSSNEEVMFLTVQVKGPTQEFKKRTTVMVKNEDSLVFVQTDKSIYKPGQTVKFRVVSMDENFHPLNELIPLVYIQDPKGNRIAQWQSFQLEGGLKQFSFPLSSEPFQGSYKVVVQKKSGGRTEHPFTVEEFVLPKFEVQVTVPKIITILEEEMNVSVCGLYTYGKPVPGHVTVSICRKYSDASDCHGEDSQAFCEKFSGQLNSHGCFYQQVKTKVFQLKRKEYEMKLHTEAQIQEEGTVVELTGRQSSEITRTITKLSFVKVDSHFRQGIPFFGQVRLVDGKGVPIPNKVIFIRGNEANYYSNATTDEHGLVQFSINTTNVMGTSLTVRVNYKDRSPCYGYQWVSEEHEEAHHTAYLVFSPSKSFVHLEPMSHELPCGHTQTVQAHYILNGGTLLGLKKLSFYYLIMAKGGIVRTGTHGLLVKQEDMKGHFSISIPVKSDIAPVARLLIYAVLPTGDVIGDSAKYDVENCLANKVDLSFSPSQSLPASHAHLRVTAAPQSVCALRAVDQSVLLMKPDAELSASSVYNLLPEKDLTGFPGPLNDQDNEDCINRHNVYINGITYTPVSSTNEKDMYSFLEDMGLKAFTNSKIRKPKMCPQLQQYEMHGPEGLRVGFYESDVMGRGHARLVHVEEPHTETVRKYFPETWIWDLVVVNSAGVAEVGVTVPDTITEWKAGAFCLSEDAGLGISSTASLRAFQPFFVELTMPYSVIRGEAFTLKATVLNYLPKCIRVSVQLEASPAFLAVPVEKEQAPHCICANGRQTVSWAVTPKSLGNVNFTVSAEALESQELCGTEVPSVPEHGRKDTVIKPLLVEPEGLEKETTFNSLLCPSGGEVSEELSLKLPPNVVEESARASVSVLGDILGSAMQNTQNLLQMPYGCGEQNMVLFAPNIYVLDYLNETQQLTPEIKSKAIGYLNTGYQRQLNYKHYDGSYSTFGERYGRNQGNTWLTAFVLKTFAQARAYIFIDEAHITQALIWLSQRQKDNGCFRSSGSLLNNAIKGGVEDEVTLSAYITIALLEIPLTVTHPVVRNALFCLESAWKTAQEGDHGSHVYTKALLAYAFALAGNQDKRKEVLKSLNEEAVKKDNSVHWERPQKPKAPVGHFYEPQAPSAEVEMTSYVLLAYLTAQPAPTSEDLTSATNIVKWITKQQNAQGGFSSTQDTVVALHALSKYGAATFTRTGKAAQVTIQSSGTFSSKFQVDNNNRLLLQQVSLPELPGEYSMKVTGEGCVYLQTSLKYNILPEKEEFPFALGVQTLPQTCDEPKAHTSFQISLSVSYTGSRSASNMAIVDVKMVSGFIPLKPTVKMLERSNHVSRTEVSSNHVLIYLDKVSNQTLSLFFTVLQDVPVRDLKPAIVKVYDYYETDEFAIAEYNAPCSKDLGNA | > 4 FV6 per α2M | 4 fold | 
methylamine-activated α2-macroglobulin (α2M-MA) (natural protein, internal thioester cleaved by methylamine (MA-activated)) SVSGKPQYMVLVPSLLHTETTEKGCVLLSYLNETVTVSASLESVRGNRSLFTDLEAENDVLHCVAFAVPKSSSNEEVMFLTVQVKGPTQEFKKRTTVMVKNEDSLVFVQTDKSIYKPGQTVKFRVVSMDENFHPLNELIPLVYIQDPKGNRIAQWQSFQLEGGLKQFSFPLSSEPFQGSYKVVVQKKSGGRTEHPFTVEEFVLPKFEVQVTVPKIITILEEEMNVSVCGLYTYGKPVPGHVTVSICRKYSDASDCHGEDSQAFCEKFSGQLNSHGCFYQQVKTKVFQLKRKEYEMKLHTEAQIQEEGTVVELTGRQSSEITRTITKLSFVKVDSHFRQGIPFFGQVRLVDGKGVPIPNKVIFIRGNEANYYSNATTDEHGLVQFSINTTNVMGTSLTVRVNYKDRSPCYGYQWVSEEHEEAHHTAYLVFSPSKSFVHLEPMSHELPCGHTQTVQAHYILNGGTLLGLKKLSFYYLIMAKGGIVRTGTHGLLVKQEDMKGHFSISIPVKSDIAPVARLLIYAVLPTGDVIGDSAKYDVENCLANKVDLSFSPSQSLPASHAHLRVTAAPQSVCALRAVDQSVLLMKPDAELSASSVYNLLPEKDLTGFPGPLNDQDNEDCINRHNVYINGITYTPVSSTNEKDMYSFLEDMGLKAFTNSKIRKPKMCPQLQQYEMHGPEGLRVGFYESDVMGRGHARLVHVEEPHTETVRKYFPETWIWDLVVVNSAGVAEVGVTVPDTITEWKAGAFCLSEDAGLGISSTASLRAFQPFFVELTMPYSVIRGEAFTLKATVLNYLPKCIRVSVQLEASPAFLAVPVEKEQAPHCICANGRQTVSWAVTPKSLGNVNFTVSAEALESQELCGTEVPSVPEHGRKDTVIKPLLVEPEGLEKETTFNSLLCPSGGEVSEELSLKLPPNVVEESARASVSVLGDILGSAMQNTQNLLQMPYGCGEQNMVLFAPNIYVLDYLNETQQLTPEIKSKAIGYLNTGYQRQLNYKHYDGSYSTFGERYGRNQGNTWLTAFVLKTFAQARAYIFIDEAHITQALIWLSQRQKDNGCFRSSGSLLNNAIKGGVEDEVTLSAYITIALLEIPLTVTHPVVRNALFCLESAWKTAQEGDHGSHVYTKALLAYAFALAGNQDKRKEVLKSLNEEAVKKDNSVHWERPQKPKAPVGHFYEPQAPSAEVEMTSYVLLAYLTAQPAPTSEDLTSATNIVKWITKQQNAQGGFSSTQDTVVALHALSKYGAATFTRTGKAAQVTIQSSGTFSSKFQVDNNNRLLLQQVSLPELPGEYSMKVTGEGCVYLQTSLKYNILPEKEEFPFALGVQTLPQTCDEPKAHTSFQISLSVSYTGSRSASNMAIVDVKMVSGFIPLKPTVKMLERSNHVSRTEVSSNHVLIYLDKVSNQTLSLFFTVLQDVPVRDLKPAIVKVYDYYETDEFAIAEYNAPCSKDLGNA |  |  | 1
